Data reported in patent publication US20100266598A1.

Assays:
human CCR5 (human) = human CCR5 (human) (UniProt P51681); experiment: cell-based or functional assay
[1] = biological target: Rhesus CCR5 (Rhesus Macaque); experiment: cell-based or functional assay

Row | Substance | % Inhibition, PM1 x 12E1/BaL, inhibitor at 20 µg/ml (human CCR5 (human)) | CCR5-tropic virus neutralization (percent inhibition of p24) at 50 µg/ml (human CCR5 (human)) | IC50 of PBMC infection by BaL, JR-CSF and 92US657 (human CCR5 (human)) | No. of Syncytia, PM1 x 12E1/BaL, inhibitor at 20 µg/ml (human CCR5 (human)) | % Inhibition, Rhesus PBMC (#810) x 12E1/SIV239, inhibitor at 20 µg/ml [1] | No. of Syncytia, Rhesus PBMC (#810) x 12E1/SIV239, inhibitor at 20 µg/ml [1] | % Inhibition, PM1 x 12E1/BaL, inhibitor at 25 µg/ml (human CCR5 (human)) | No. of Syncytia, PM1 x 12E1/BaL, inhibitor at 25 µg/ml (human CCR5 (human)) | % Inhibition, Rhesus PBMC (#810) x 12E1/SIV239, inhibitor at 25 µg/ml [1] | No. of Syncytia, Rhesus PBMC (#810) x 12E1/SIV239, inhibitor at 25 µg/ml [1]
1 | monoclonal antibody (mAb) 2D7 | 99% | 82 to 93% | 2 to 4 µg/mL | 5 syncytia | 4% | 258 syncytia |  |  |  | 
2 | pre-immune rabbit IgG (antibody) |  |  |  |  |  |  | 0% | 487 syncytia | 0% | 285 syncytia
